Patent publication US20150030697A1

Key:
[1] = biological target: Guanylate cyclase C (GC-C) (human), P25092
[2] = biological target: Guanylate cyclase C (GC-C) (human), P25092; assay: cell-based or functional assay

Chain of Guanylate cyclase C (GC-C) (human), P25092 (P25092 24-1073): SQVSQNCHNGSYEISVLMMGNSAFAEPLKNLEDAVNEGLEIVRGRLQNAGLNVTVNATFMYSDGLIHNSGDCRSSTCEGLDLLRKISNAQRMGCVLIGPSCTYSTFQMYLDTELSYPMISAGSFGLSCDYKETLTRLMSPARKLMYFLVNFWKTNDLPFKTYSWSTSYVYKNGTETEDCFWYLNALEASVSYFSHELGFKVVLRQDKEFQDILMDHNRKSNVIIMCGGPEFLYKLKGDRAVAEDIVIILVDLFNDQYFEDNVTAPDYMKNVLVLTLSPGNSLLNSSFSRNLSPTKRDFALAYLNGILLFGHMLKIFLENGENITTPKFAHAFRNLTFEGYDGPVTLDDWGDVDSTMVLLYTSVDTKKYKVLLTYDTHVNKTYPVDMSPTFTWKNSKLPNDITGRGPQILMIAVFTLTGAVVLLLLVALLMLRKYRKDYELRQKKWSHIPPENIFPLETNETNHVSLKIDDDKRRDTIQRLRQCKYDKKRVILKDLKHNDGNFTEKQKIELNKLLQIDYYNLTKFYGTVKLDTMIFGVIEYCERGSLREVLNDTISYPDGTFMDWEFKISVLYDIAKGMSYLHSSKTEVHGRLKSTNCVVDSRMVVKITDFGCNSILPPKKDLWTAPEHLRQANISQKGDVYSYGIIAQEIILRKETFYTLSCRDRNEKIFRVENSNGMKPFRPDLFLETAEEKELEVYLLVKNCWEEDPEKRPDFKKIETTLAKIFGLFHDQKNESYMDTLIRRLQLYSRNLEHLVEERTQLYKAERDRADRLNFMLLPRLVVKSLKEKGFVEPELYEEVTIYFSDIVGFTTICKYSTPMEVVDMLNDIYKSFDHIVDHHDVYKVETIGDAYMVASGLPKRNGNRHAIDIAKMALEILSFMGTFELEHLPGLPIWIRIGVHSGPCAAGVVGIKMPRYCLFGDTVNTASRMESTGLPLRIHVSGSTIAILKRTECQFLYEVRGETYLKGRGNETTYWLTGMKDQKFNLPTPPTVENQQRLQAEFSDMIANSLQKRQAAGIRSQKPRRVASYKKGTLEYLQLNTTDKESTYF

CCELCCNPACTGCY (modifications not checked) [Peptide 3] was tested, and the Ki [1] was 1.2 nM and the EC50 at pH 5 (nM), cGMP response of T84 cells [2] was 16 nM.
